Biological target: T1, GST-TAp73α (UniProt O15350 1-636)
T1 sequence: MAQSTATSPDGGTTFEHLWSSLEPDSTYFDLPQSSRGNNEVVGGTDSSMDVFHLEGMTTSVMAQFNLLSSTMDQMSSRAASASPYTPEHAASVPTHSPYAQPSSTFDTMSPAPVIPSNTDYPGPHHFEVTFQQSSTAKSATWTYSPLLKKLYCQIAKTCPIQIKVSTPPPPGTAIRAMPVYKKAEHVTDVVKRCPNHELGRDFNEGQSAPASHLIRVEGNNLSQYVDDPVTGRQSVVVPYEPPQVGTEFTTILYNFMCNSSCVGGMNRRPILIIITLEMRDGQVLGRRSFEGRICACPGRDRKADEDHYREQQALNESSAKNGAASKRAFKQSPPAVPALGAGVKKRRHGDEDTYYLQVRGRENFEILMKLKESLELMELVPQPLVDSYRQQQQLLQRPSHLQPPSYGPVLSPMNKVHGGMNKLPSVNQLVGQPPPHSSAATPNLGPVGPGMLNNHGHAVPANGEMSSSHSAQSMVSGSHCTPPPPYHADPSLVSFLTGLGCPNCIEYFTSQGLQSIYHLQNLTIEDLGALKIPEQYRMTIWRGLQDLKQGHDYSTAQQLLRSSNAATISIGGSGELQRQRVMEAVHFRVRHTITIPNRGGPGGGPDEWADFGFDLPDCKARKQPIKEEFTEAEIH
Test: fluorescence polarization; FP: 4 nM FAM duplex, 100 mM NaCl, 10 mM Tris-HCl pH 7.5, 10% glycerol, 5 mM DTT, 0.2 mg/mL BSA, room temperature; pull-down: 2 ug duplex with lysate, 90 min room temperature, then streptavidin beads 2 h 4 C
Settings: protein: commercial; tags: GST; chain copies: 4; label: 5' 6-FAM on strand 1; blunt

B1: PUMA promoter duplex, FAM (dsDNA)
DNA 1: CGCGCCTGCAAGTCCTGACTTGTCCGCGGC
DNA 2: GCCGCGGACAAGTCAGGACTTGCAGGCGCG
How did the Kd turn out when B1 was run?
Its Kd is 87.1 nM.

— article PMC4226670, “TAp73 promotes cell survival upon genotoxic stress by inhibiting p53 activity”
